Assay results as given in US20230287402A1.

Molecular target: GFP-60mer nanocages
Assay: absorbance at 490 nm and 570 nm of the complex purified by size exclusion chromatography

Question: How did the ratio GFP/mScarlet in the purified complex turn out when “GBP-mScarlet, purified fusion of the anti-GFP nanobody and mScarlet (VHH)” was run?
Answer: 0.95
